Target: APE1 wild type (human) (UniProt P27695)
Assay: EMSA
Settings: 1 mM EDTA (no catalysis); apparent KD; N at position 16 of strand 1 = abasic ribonucleotide analog (tetrahydrofuran with 2'-OH); EMSA: 2 nM DNA, 0-20 nM APE1, 50 mM Tris pH 8, 1 mM EDTA, 0.2 mg/ml BSA, 1 mM DTT, 5% sucrose, 30 min on ice, 10% native gel

Sequence of UniProt P27695 (P27695 whole entry): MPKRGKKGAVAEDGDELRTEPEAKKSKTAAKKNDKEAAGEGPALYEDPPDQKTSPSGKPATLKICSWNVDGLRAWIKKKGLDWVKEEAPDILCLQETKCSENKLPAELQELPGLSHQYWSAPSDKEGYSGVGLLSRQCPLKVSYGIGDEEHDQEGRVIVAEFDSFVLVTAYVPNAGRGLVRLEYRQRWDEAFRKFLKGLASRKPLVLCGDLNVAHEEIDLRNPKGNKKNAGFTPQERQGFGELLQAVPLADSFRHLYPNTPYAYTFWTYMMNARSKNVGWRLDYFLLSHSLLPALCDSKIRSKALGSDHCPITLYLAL

Sequence “CGTTCGCTGATGCGCNCGACGGATCCGCAT / ATGCGGATCCGTCGAGCGCATCAGCGAACG [30-mer rAP DNA]” has a Kd of 2.9 nM.

From PMC8207216
